The text below walks through data of patent EP2123670B1 (Bioxodes SA, dated 2017).

In one assay the target is T1, factor IX (UniProt P00740 47-461).
T1 construct: Zymogen; also called fIX
As to the kind of experiment: SPR (BIAcore X), Ir-CPI immobilised at 1500 RU on CM5, factor injected. (In general: SPR reads the build-up and loss of mass on a sensor chip optically.)

In the next assay the target is T2, factor X (UniProt P00742 41-488).
T2 construct: Zymogen; also called fX
The description is as above.

Another assay addresses T3, thrombin (UniProt P00734 328-622).
T3 construct: also called factor IIa; IIa
The assay is described as above.

The next assay addresses T4, factor VIIa (UniProt P08709 61-466).
T4 construct: also called fVIIa; FVIIa
T4 sequence (looked up): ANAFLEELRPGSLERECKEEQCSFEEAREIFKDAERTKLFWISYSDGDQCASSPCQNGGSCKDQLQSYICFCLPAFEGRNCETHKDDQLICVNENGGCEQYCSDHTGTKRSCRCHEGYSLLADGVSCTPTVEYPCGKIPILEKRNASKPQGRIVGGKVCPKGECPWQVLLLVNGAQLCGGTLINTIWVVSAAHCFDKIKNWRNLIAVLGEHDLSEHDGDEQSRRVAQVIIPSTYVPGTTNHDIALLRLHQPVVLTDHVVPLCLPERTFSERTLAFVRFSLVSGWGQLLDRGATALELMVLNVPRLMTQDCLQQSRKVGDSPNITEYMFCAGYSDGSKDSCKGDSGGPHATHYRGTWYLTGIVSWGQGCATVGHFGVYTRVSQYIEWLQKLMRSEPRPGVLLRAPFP
Described as above.

In the next assay the target is t-PA (UniProt P00750 36-562). The assay is described as above.
t-PA, sequence (P00750 36-562 limits assumed): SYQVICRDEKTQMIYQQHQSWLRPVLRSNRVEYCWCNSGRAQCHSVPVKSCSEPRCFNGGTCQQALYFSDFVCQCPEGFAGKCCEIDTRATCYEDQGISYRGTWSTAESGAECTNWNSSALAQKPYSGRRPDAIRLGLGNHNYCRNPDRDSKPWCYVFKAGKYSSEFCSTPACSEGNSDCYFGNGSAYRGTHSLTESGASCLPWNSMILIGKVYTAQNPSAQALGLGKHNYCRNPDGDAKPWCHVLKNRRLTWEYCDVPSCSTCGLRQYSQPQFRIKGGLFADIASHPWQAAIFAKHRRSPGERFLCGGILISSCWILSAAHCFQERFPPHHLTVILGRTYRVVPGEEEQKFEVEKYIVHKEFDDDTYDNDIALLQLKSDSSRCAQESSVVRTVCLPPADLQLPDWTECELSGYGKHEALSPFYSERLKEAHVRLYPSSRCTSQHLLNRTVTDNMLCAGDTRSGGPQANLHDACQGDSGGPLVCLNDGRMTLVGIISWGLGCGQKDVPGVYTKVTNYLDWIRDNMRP
A further assay deals with T5, plasminogen (UniProt P00747 20-810, limits assumed).
T5 construct: Zymogen
T5 sequence (P00747 20-810 limits assumed): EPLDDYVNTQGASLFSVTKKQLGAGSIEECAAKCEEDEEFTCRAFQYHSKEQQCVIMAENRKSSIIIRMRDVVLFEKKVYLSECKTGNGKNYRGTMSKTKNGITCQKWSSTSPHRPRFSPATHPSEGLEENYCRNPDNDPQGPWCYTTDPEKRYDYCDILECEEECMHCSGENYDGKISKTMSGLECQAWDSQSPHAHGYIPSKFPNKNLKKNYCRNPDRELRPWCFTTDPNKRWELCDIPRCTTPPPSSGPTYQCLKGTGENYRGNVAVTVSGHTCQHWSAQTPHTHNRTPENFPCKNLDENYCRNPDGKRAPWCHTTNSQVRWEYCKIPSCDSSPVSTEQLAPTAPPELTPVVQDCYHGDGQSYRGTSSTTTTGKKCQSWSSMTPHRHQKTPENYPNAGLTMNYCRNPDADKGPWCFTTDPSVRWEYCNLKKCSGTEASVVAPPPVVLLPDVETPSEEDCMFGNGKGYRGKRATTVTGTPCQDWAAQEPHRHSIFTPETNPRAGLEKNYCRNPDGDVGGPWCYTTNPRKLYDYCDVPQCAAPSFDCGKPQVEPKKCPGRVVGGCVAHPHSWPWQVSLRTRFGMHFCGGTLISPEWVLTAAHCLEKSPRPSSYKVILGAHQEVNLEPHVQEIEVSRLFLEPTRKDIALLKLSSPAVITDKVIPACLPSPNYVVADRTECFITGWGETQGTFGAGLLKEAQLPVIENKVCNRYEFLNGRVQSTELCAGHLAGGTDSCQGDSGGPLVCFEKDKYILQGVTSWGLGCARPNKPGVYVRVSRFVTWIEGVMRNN
Described as above.

Assay [1] concerns the target T6, high molecular weight kininogen (UniProt P01042 19-644).
T6 construct: also called HMWK
T6 sequence (looked up): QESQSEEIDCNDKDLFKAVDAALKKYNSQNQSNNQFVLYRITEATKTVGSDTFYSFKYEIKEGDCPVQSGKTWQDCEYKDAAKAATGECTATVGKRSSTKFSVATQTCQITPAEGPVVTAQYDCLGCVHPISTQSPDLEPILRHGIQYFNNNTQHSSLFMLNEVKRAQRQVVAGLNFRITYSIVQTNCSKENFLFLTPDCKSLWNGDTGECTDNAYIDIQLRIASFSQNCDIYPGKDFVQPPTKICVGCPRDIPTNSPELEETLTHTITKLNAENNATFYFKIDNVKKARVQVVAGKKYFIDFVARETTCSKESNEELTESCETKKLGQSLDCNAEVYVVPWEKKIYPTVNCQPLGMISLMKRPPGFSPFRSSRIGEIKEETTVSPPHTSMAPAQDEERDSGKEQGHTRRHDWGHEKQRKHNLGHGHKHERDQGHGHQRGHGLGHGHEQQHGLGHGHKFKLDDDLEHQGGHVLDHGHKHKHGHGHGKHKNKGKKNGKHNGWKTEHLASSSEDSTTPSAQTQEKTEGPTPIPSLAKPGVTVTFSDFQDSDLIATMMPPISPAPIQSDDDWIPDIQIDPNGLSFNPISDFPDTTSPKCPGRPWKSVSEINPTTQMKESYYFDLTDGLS
Described as above.

Assay [2] addresses T7, plasma kallikrein (UniProt P03952 20-638).
T7 construct: The active enzyme is the cleaved two-chain form of the precursor
As to the kind of experiment: SPR, Ir-CPI immobilised; two-state model, forward rate of the conformation change.

In assay [3] the target is T8, factor XIa (UniProt P03951 19-625).
T8 construct: also called fXIa; FXIa
Described as above.

Assay [4] addresses T9, plasmin (UniProt P00747 97-810). The assay is described as above.
The target in assay [5] is T7, plasma kallikrein. Kind of assay: SPR, Ir-CPI immobilised; two-state model, backward rate of the conformation change.
Assay [6] has as its target T8, factor XIa. The assay is described as above.
The target in assay [7] is T9, plasmin. The description is as above.
In assay [8] the target is T7, plasma kallikrein. Kind of assay: SPR, Ir-CPI immobilised; two-state model, global equilibrium constant K = ka1ka2/kd1kd2.
The target of assay [9] is T8, factor XIa. Described as above.
The target of assay [10] is T9, plasmin. The assay is described as above.
For assay [11], the target named is T7, plasma kallikrein. As to the kind of experiment: SPR (BIAcore X), Ir-CPI immobilised at about 200 RU, factor injected at 5-300 nM; two-state model, ka1 (first step).
The target of assay [12] is T8, factor XIa. The assay is described as above.
The target in assay [13] is T9, plasmin. The assay is described as above.
Assay [14] deals with T7, plasma kallikrein. As to the kind of experiment: SPR (BIAcore X), Ir-CPI immobilised at about 200 RU, factor injected at 5-300 nM; two-state model, kd1 (first step).
Assay [15] has as its target T8, factor XIa. The description is as above.
Assay [16] concerns the target T9, plasmin. Described as above.

T9 sequence (P00747 97-810 limits assumed): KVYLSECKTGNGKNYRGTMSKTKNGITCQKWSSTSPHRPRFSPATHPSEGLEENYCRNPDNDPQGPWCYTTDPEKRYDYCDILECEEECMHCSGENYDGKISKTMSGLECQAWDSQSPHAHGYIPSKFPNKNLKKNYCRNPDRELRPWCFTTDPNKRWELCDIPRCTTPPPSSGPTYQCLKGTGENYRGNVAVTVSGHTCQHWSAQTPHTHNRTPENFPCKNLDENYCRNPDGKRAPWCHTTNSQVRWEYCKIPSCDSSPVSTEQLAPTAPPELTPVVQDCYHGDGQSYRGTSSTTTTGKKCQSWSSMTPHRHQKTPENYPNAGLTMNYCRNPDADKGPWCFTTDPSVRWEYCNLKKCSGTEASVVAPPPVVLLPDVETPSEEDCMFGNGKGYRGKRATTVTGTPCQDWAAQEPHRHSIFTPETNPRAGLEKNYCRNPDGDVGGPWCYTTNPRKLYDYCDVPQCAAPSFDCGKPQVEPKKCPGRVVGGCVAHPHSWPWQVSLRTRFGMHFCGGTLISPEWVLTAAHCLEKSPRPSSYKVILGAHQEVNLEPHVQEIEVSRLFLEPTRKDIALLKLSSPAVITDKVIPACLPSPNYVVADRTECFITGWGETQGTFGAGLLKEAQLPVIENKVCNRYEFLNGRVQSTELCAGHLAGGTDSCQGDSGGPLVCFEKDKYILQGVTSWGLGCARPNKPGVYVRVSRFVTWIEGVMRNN
T7 sequence (P03952 20-638 limits assumed): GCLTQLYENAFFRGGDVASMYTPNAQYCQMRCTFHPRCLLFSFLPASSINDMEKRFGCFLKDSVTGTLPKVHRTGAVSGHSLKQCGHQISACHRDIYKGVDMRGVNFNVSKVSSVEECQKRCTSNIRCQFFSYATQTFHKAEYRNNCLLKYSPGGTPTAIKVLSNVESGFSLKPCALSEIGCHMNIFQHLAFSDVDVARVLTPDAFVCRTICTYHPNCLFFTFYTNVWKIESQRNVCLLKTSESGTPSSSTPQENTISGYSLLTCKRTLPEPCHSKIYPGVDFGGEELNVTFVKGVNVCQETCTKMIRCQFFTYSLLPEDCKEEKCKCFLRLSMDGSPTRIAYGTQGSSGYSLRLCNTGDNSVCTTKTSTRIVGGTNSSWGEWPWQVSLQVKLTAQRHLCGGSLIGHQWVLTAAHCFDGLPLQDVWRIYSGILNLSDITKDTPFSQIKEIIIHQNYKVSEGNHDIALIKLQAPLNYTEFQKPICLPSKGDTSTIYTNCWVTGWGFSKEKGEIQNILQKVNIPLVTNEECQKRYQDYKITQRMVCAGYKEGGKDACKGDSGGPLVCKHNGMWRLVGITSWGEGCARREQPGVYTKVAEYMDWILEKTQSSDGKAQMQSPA

B1: Ir-CPI (other)
chain: ANHKGRGRPAKCKLPPDDGPCRARIPSYYFDRKTKTCKEFMYGGCEGNENNFENITTCQEECRAKKV
notes: Expressed in E. coli as a GST fusion (pGEX-6P-1), released with PreScission protease and purified by gel filtration; Immobilised on a CM5 chip by amine coupling in the SPR assays; also called recombinant Ir-CPI
In general, kon refers to a measure of how fast the partners come together. The low end stands for slower complex formation, the high end for faster complex formation. By koff is commonly meant the first-order rate constant of dissociation. Higher therefore signals a short-lived complex. Turning to B1, the binding result with factor IX, in the assay with factor X, with thrombin, with factor VIIa, with t-PA and with plasminogen was “no binding (tested: 100 nM)” in each case. Moreover, the binding result in [1] was “no binding (tested: 100 nM)”. The ka2 in the assay with plasma kallikrein [2] came out at 0.00834 s⁻¹; with factor XIa [3], 0.0298 s⁻¹; in the assay with plasmin [4], 0.00582 s⁻¹. In addition, the kd2 in the assay with plasma kallikrein [5] worked out at 0.00142 s⁻¹; in the assay with factor XIa [6], 0.00232 s⁻¹; in the assay with plasmin [7], 0.00614 s⁻¹. For the same molecule, the figures for the Ka in the assay with plasma kallikrein [8], with factor XIa [9] and with plasmin [10] were 4.51e+06 M⁻¹, 3.83e+08 M⁻¹ and 3.3e+08 M⁻¹, respectively. The association rate constant (kon) with plasma kallikrein [11] worked out at 34900 M⁻¹ s⁻¹; in the assay with factor XIa [12], 2.31e+06 M⁻¹ s⁻¹; with plasmin [13], 900000 M⁻¹ s⁻¹. Further, the koff with plasma kallikrein [14] worked out at 0.0532 s⁻¹; with factor XIa [15] it was 0.102 s⁻¹; in the assay with plasmin [16] it was 0.00535 s⁻¹.
